In the RNAGym collection of RNA variant scans (doi:10.7554/elife.80360) one finds self-cleavage data, which are given here for 57 variants.

The labels stand for the following.
B1: Hammerhead Ribozyme (parent)
chain: ACCGGAUGUGCUUUCCGGUCUGAUGAGUCCGUGAGGACGAAACAG

In the data set the parent is B1. As to the kind of experiment: self-cleavage, relative activity (ratio to wild type); higher = more cleavage; co-transcriptional.
For the variant ACCGGAUGUGCUUUCCGGUAUGAUGAGUCCGUGAGGUCGAAACAG, the self-cleavage worked out at 0.353.
In the case of ACCGGAUGUGCUUUCCGGUAUGAUGAGUCCGUGAGGCCGAAACAG it was 0.417; in that of ACCGGAUGUGCUUUCCGGUAUGAUGAGUCCGUGAGGGCGAAACAG, 0.441.
As for ACCGGAUGUGCUUUCCGGUAUGAUGAGUCCAUGAGGACGAAACAG, the self-cleavage amounted to 0.576.
In the case of ACCGGAUGUGCUUUCCGGUAUGAUGAGUCCCUGAGGACGAAACAG it was 0.412; in that of ACCGGAUGUGCUUUCCGGUAUGAUGAGUCCUUGAGGACGAAACAG, 0.475.
In the case of ACCGGAUGUGCUUUCCGGUAUGAUGAGUCCGUGAGGAGGAAACAG it was 0.429; in that of ACCGGAUGUGCUUUCCGGUAUGAUGAGUCCGUGAGGAUGAAACAG, 0.385; in that of ACCGGAUGUGCUUUCCGGUAUGAUGAGUCCGUGAGGAAGAAACAG, 0.292.
For the variant ACCGGAUGUGCUUUCCGGUAUUAUGAGUCCGUGAGGACGAAACAG, the self-cleavage is 0.341.
As for ACCGGAUGUGCUUUCCGGUAUAAUGAGUCCGUGAGGACGAAACAG, the self-cleavage came out at 0.287.
On to ACCGGAUGUGCUUUCCGGUAUCAUGAGUCCGUGAGGACGAAACAG, for which the self-cleavage turned out to be 0.349.
In the case of ACCGGAUGUGCUUUCCGGUAAGAUGAGUCCGUGAGGACGAAACAG it was 0.228; in that of ACCGGAUGUGCUUUCCGGUAUGAUGAGUCCGUGAAGACGAAACAG, 0.446.
In the case of ACCGGAUGUGCUUUCCGGUAUGAUGAGUCCGUGACGACGAAACAG it was 0.385.
In the case of ACCGGAUGUGCUUUCCGGUAUGAUGAGUCCGUGAUGACGAAACAG, the self-cleavage is 0.345.
In the case of ACCGGAUGUGCUUUCCGGUAUGAUGAGUGCGUGAGGACGAAACAG it was 0.311; in that of ACCGGAUGUGCUUUCCGGUAUGAUGAGUACGUGAGGACGAAACAG, 0.382; in that of ACCGGAUGUGCUUUCCGGUAUGAUGAGUUCGUGAGGACGAAACAG, 0.357.
For the variant ACCGGAUGUGCUUUCCGGUAUGAUGAGUCCGUGAGGACGAAAUAG, the self-cleavage is 0.342.
In the case of ACCGGAUGUGCUUUCCGGUAUGAUGAGUCCGUGAGGACGAAAGAG it was 0.25.
In the case of ACCGGAUGUGCUUUCCGGUAUGAUGAGUCCGUGAGGACGAAAAAG it was 0.321.
In the case of ACCGGAUGUGCUUUCCGGUAUGAUGAGUCCGUGUGGACGAAACAG it was 0.413.
Regarding ACCGGAUGUGCUUUCCGGUAUGAUGAGUCCGUGGGGACGAAACAG, the self-cleavage worked out at 0.341.
Turning to ACCGGAUGUGCUUUCCGGUAUGAUGAGUCUGUGAGGACGAAACAG, the self-cleavage is 0.498.
In the case of ACCGGAUGUGCUUUCCGGUAUGAUGAGUCGGUGAGGACGAAACAG it was 0.353; in that of ACCGGAUGUGCUUUCCGGUAUGAUGAGUCAGUGAGGACGAAACAG, 0.286; in that of ACCGGAUGUGCUUUCCGGUAUGAUGAGUCCGUGAGGACGAGACAG, 0.309.
As to ACCGGAUGUGCUUUCCGGUAUGAUGAGUCCGUGAGGACGACACAG, the self-cleavage came to 0.388.
In the case of ACCGGAUGUGCUUUCCGGUAUGAUGAGUCCGUGAGGACGAUACAG it was 0.335; in that of ACCGGAUGUGCUUUCCGGUAUGAUGAGUCCGUGAGAACGAAACAG, 0.33.
On to ACCGGAUGUGCUUUCCGGUAUGAUGAGUCCGUGAGCACGAAACAG, for which the self-cleavage was 0.313.
Consider ACCGGAUGUGCUUUCCGGUAUGAUGAGUCCGUGAGUACGAAACAG, for which the self-cleavage worked out at 0.306.
In the case of ACCGGAUGUGCUUUCCGGUAUGAUGAGUCCGUAAGGACGAAACAG it was 0.651; in that of ACCGGAUGUGCUUUCCGGUAUGAUGAGUCCGUCAGGACGAAACAG, 0.555.
In the case of ACCGGAUGUGCUUUCCGGUAUGAUGAGUCCGUUAGGACGAAACAG it was 0.548; in that of ACCGGAUGUGCUUUCCGGUAUGAUGAGUCCGUGAGGACGAAGCAG, 0.341; in that of ACCGGAUGUGCUUUCCGGUAUGAUGAGUCCGUGAGGACGAAUCAG, 0.386.
In the case of ACCGGAUGUGCUUUCCGGUAUGAUGAGUCCGUGAGGACGAACCAG, the self-cleavage was 0.335.
In the case of ACCGGAUGUGCUUUCCGGUAUGAUUAGUCCGUGAGGACGAAACAG it was 0.619.
Turning to ACCGGAUGUGCUUUCCGGUAUGAUAAGUCCGUGAGGACGAAACAG, the self-cleavage worked out at 0.309.
In the case of ACCGGAUGUGCUUUCCGGUAUGAUCAGUCCGUGAGGACGAAACAG it was 0.287.
In the case of ACCGGAUGUGCUUUCCGGUAUGAUGAGUCCGUGAGGACGAAACAU it was 0.357; in that of ACCGGAUGUGCUUUCCGGUAUGAUGAGUCCGUGAGGACGAAACAC, 0.414.
As to ACCGGAUGUGCUUUCCGGUAUGAUGAGUCCGUGAGGACGAAACAA, the self-cleavage was found to be 0.396.
Consider ACCGGAUGUGCUUUCCGGUAUGAUGAGUCCGUGAGGACGAAACGG, for which the self-cleavage came to 0.848.
Regarding ACCGGAUGUGCUUUCCGGUAUGAUGAGUCCGUGAGGACGAAACCG, the self-cleavage came out at 0.366.
In the case of ACCGGAUGUGCUUUCCGGUAUGAUGAGUCCGUGAGGACGAAACUG it was 0.323; in that of ACCGGAUGUGCUUUCCGGUAUGAUGAGUCCGUGAGGACGCAACAG, 0.33.
On to ACCGGAUGUGCUUUCCGGUAUGAUGAGUCCGUGAGGACGUAACAG, for which the self-cleavage came out at 0.382.
ACCGGAUGUGCUUUCCGGUAUGAUGAGUCCGUGAGGACGGAACAG: the self-cleavage was 0.326.
In the case of ACCGGAUGUGCUUUCCGGUAUGAUGAGUCCGUGAGGACCAAACAG it was 0.393; in that of ACCGGAUGUGCUUUCCGGUAUGAUGAGUCCGUGAGGACAAAACAG, 0.347.
Consider ACCGGAUGUGCUUUCCGGUAUGAUGAGUCCGUGAGGACUAAACAG, for which the self-cleavage was 0.329.
As to ACCGGAUGUGCUUUCCGGUAUGAUGACUCCGUGAGGACGAAACAG, the self-cleavage was 0.369.
In the case of ACCGGAUGUGCUUUCCGGUAUGAUGAAUCCGUGAGGACGAAACAG it was 0.333.
In the case of ACCGGAUGUGCUUUCCGGUAUGAUGAUUCCGUGAGGACGAAACAG it was 0.302.
